{"source": "patent US20110212106A1", "about": "“HIV-1 NE[…] USES THEREOF” (priority 2010, published 2011)", "key": {"[1]": {"test_system": "gp120", "procedure": "For competition assays mAbs were purified on Protein G columns (GE Healthcare) and biotinylated using the EZ-Link NHS-PEO solid phase biotinylation kit (Pierce). The competition between unlabeled and biotinylated mAbs for binding to immobilized Env antigens was measured by ELISA. Briefly, unlabelled competitor mAbs were added at different concentrations. After 1 hour biotinylated mAbs were added at a concentration corresponding to the 70-80% of the maximal OD level. After incubation for 1 h, plates were washed and bound biotinylated mAb was detected using AP-labeled streptavidin (Jackson Immunoresearch). The percentage of inhibition was tested in triplicates and calculated as follow: (1−[(ODsample−ODneg ctr)/(ODpos ctr−ODneg ctr)])×100."}, "[2]": {"assay": "In vivo administration in macaques", "excerpt": "Specificity: V3 loop. Pepscan analysis identified the epitope which is very conserved in the tip of V3 of gp120. It includes 4 residues involved in co-receptor (CCR5 or CXCR4) binding. Also HGN194 has accessibility problems (Fab fragment and single chain antibody may work better). Neutralizes most Tier 1 isolates (they are more sensitive isolates since the epitope is more accessible)."}, "[3]": {"test_system": "HIV-1 pseudoviruses in TZM-bl cells"}, "[4]": {"test_system": "HIV-1 isolates", "assay": "Neutralization of HIV-1 isolates (TZMbl-based or HOS-based assay, not specified)", "type": "cell-based", "excerpt": "FIG. 5. Epitope mapping of V3-specific mAbs by linear and circular peptide scanning. (A) Eight gp120-specific mAbs were mapped with linear and cyclic peptides to the V3 region. Shown is the HIV-1 isolate used for the mapping, the minimal epitope, the binding breadth expressed as number of recombinant Env proteins out of the 16 tested, and the fraction of isolates neutralized in the HOS and TZMbl-based neutralization assays, respectively. (B) Alignment of the region corresponding to the epitope recognized by mAb HGN194 in 44 HIV-1 isolates. Co-receptor binding residues are bold. Highlighted in grey are the isolates neutralized by HGN194 either in the TZMbl-based or in the HOS-based assays. […]\nTo measure the neutralization activity of the isolated mAbs, luciferase-encoding virions pseudotyped with the desired HIV-1 Env proteins were used in a single-cycle infectivity assay, as previously described (Gorny M K, et al. (2002) J Virol 76: 9035-9045). […] The cells were then lysed with Britelite reagent (Perkin-Elmer) and the relative light units in the cell lysates were determined on a luminometer microplate reader (Veritas, Turner Biosystems). […]"}, "[5]": {"test_system": "gp120 binding to sCD4", "details": "inhibition of sCD4 binding", "procedure": "Shown is mean±SD of triplicates.\nThe ability of mAbs to inhibit binding of sCD4 to gp120 or gp140 was evaluated by ELISA. Serial dilutions of mAbs were pre-incubated with gp120 (or gp140) and added to plates pre-coated with sCD4. After 1 h plates were washed and incubated with sheep polyclonal antibody D7324 (Aalto Bio-Reagents) followed by washing, incubation with AP-conjugated rabbit anti-sheep IgG antibody (Abcam, Cambridge, UK), extensive washing and detection using p-NPP (Sigma) as substrate."}, "[6]": {"test_system": "HIV-1 pseudoviruses in HOS-CD4-CCR5 cells", "description": "To measure the neutralization activity of the isolated mAbs, luciferase-encoding virions pseudotyped with the desired HIV-1 Env proteins were used in a single-cycle infectivity assay, as previously described (Gorny M K, et al. (2002) J Virol 76: 9035-9045). Briefly, appropriate dilutions of the virion-containing culture supernatants were pre-incubated at 37° C. for 1 h with mAbs at various concentrations. The virus-mAb mixtures were added to HOS-CD4-CCR5 cells and incubated for 3 days at 37° C. A similar protocol was used for supernatants screening using TZM-bl cells (Li M, et al. (2006) J Virol 80: 11776-11790). The cells were then lysed with Britelite reagent (Perkin-Elmer) and the relative light units in the cell lysates were determined on a luminometer microplate reader (Veritas, Turner Biosystems). The 50% inhibitory dose (IC50) was defined as the sample concentration at which relative luminescence units were reduced 50% compared to virus control wells.\nThe neutralizing activity of the mAbs was measured using 20 pseudotyped HIV-1 primary isolate envs characterized by different sensitivity to neutralization (Li M, et al. (2005) J Virol 79: 10108-10125; Li M, et al. (2006) J Virol 80: 11776-11790). The mAbs were tested at a fixed concentration (100 μg/ml) in the luciferase based neutralization assay using HOS-CD4.R5 as target cells."}}, "note": "Where two headings read alike, the source gives them in different places.", "data": [{"molecule": "HGN194: human mAb binding the V3 crown of gp120; VH SEQ ID NO: 45, VL SEQ ID NO: 46 (antibody, listed as Homo sapiens, V domains shown) VH: EVQLVQSGAEVKKPGESLKISCYGSGYNFNDYWIGWVRQMPGKGLEWMGMIYPDDSDTKYSAAFEGQVTLSADKSISTAYLQWTSLRASDTATYYCARLDGDYADFDSWGQGTLVTVSS VL: QSVLTQPPSVSAAPGQKVTISCSGTNSNLGDKFVSWYQQLPGTAPRLLIYDNDKRPSGIPDRFSGSKSGASATLAITGLQTGDEADYYCGTWDNSLSALFGGGTKLTVL", "values": [{"measurement": "Cross-competition with: 2G12", "setting": "[1]; inhibition of biotinylated mAb 2G12 binding to immobilized gp120", "result": "− (−, <50% inhibition)"}, {"measurement": "Cross-competition with: HGA9", "setting": "[1]; inhibition of biotinylated mAb HGA9 binding to immobilized gp120", "result": "+ (+,90-100% inhibition)"}, {"measurement": "Cross-competition with: HJ16", "setting": "[1]; inhibition of biotinylated mAb HJ16 binding to immobilized gp120", "result": "− (−, <50% inhibition)"}, {"measurement": "Cross-competition with: HR10", "setting": "[1]; inhibition of biotinylated mAb HR10 binding to immobilized gp120", "result": "+ (+,90-100% inhibition)"}, {"measurement": "Cross-competition with: b12", "setting": "[1]; inhibition of biotinylated mAb b12 binding to immobilized gp120", "result": "− (−, <50% inhibition)"}, {"measurement": "efficacy in macaques", "setting": "[2]", "result": "complete protection"}, {"measurement": "Percentage of HIV-1 isolates neutralized", "setting": "[3]; All (92)", "result": 21, "unit": "%"}, {"measurement": "Neutralization TZM-bl (number of isolates neutralized)", "setting": "[3]; TZM-bl based assay, isolates neutralized/isolates tested", "result": "19/92"}, {"measurement": "Percentage of HIV-1 isolates neutralized", "setting": "[3]; Tier 1 (10)", "result": 100, "unit": "%"}, {"measurement": "Percentage of HIV-1 isolates neutralized", "setting": "[3]; Tier 1 + Tier 2, Clade A (8)", "result": 38, "unit": "%"}, {"measurement": "Percentage of HIV-1 isolates neutralized", "setting": "[3]; Tier 1 + Tier 2, Clade AD (1)", "result": 0, "unit": "%"}, {"measurement": "Percentage of HIV-1 isolates neutralized", "setting": "[3]; Tier 1 + Tier 2, Clade AG (16)", "result": 0, "unit": "%"}, {"measurement": "Percentage of HIV-1 isolates neutralized", "setting": "[3]; Tier 1 + Tier 2, Clade B (29)", "result": 24, "unit": "%"}, {"measurement": "Percentage of HIV-1 isolates neutralized", "setting": "[3]; Tier 1 + Tier 2, Clade BC (11)", "result": 0, "unit": "%"}, {"measurement": "Percentage of HIV-1 isolates neutralized", "setting": "[3]; Tier 1 + Tier 2, Clade C (26)", "result": 23, "unit": "%"}, {"measurement": "Percentage of HIV-1 isolates neutralized", "setting": "[3]; Tier 1 + Tier 2, Clade G (1)", "result": 0, "unit": "%"}, {"measurement": "Percentage of HIV-1 isolates neutralized", "setting": "[3]; Tier 2 (82)", "result": 11, "unit": "%"}, {"measurement": "Percentage of HIV-1 isolates neutralized", "setting": "[3]; Tier 2, Clade A (5)", "result": 20, "unit": "%"}, {"measurement": "Percentage of HIV-1 isolates neutralized", "setting": "[3]; Tier 2, Clade AD (1)", "result": 0, "unit": "%"}, {"measurement": "Percentage of HIV-1 isolates neutralized", "setting": "[3]; Tier 2, Clade AG (16)", "result": 0, "unit": "%"}, {"measurement": "Percentage of HIV-1 isolates neutralized", "setting": "[3]; Tier 2, Clade B (24)", "result": 8, "unit": "%"}, {"measurement": "Percentage of HIV-1 isolates neutralized", "setting": "[3]; Tier 2, Clade BC (11)", "result": 0, "unit": "%"}, {"measurement": "Percentage of HIV-1 isolates neutralized", "setting": "[3]; Tier 2, Clade C (24)", "result": 17, "unit": "%"}, {"measurement": "Percentage of HIV-1 isolates neutralized", "setting": "[3]; Tier 2, Clade G (1)", "result": 0, "unit": "%"}, {"measurement": "pseudoviruses neutralized in the TZM-bl based assay", "setting": "[3]; neutralized/tested", "result": "19/92"}, {"measurement": "IC50", "setting": "[4]; isolate 93MW965.26", "result": "< 0.02", "unit": "µg/mL"}, {"measurement": "neutralization", "setting": "[4]; isolates Du422.1, ZM197M.PB7 and Du172.17", "result": "not neutralized"}, {"measurement": "Cross-competition with: sCD4", "setting": "[5]", "result": "− (−, <50% inhibition)"}, {"measurement": "Neutralization HOS (number of isolates neutralized)", "setting": "[6]; HOS-based assay, isolates neutralized/isolates tested", "result": "11/20"}, {"measurement": "pseudoviruses neutralized out of the 20 pseudoviruses", "setting": "[6]; mAb at fixed concentration 100 μg/ml", "result": 11}, {"measurement": "pseudoviruses neutralized in the HOS-based assay", "setting": "[6]; neutralized/tested", "result": "11/20"}]}]}
